Fraction of the 30,000-D protein co-sedimenting with actin and stoichiometry N data for one substance are collected here from article PMC2114503.

What is called stoichiometry N is the number of molecules, sites or subunits per partner or assembly.

Like-named read-outs stand apart in the source and are kept apart here.

What all share (assay): co-sedimentation
Test [1] concerns the target rabbit skeletal muscle actin (rabbit) (UniProt P68135).
For test [2] the target is unchanged. This is another data set of the same source.
Test [3] shares this target. Particulars: scale: molecules of actin per molecule of the 30,000-D protein.
The target is the same in test [4]. The source holds these as a separate data set.
For test [5] the target is unchanged. This is another data set of the same source.

For the substance “Dictyostelium discoideum 30,000-D actin-binding protein (natural protein)”, the fraction of the 30,000-D protein co-sedimenting with actin in test [1] came out at 14%; in test [2] it was 29%; in test [4], 73%; in test [5] it was 99%. Moreover, the stoichiometry N was determined as 10.3 in test [3] and 9.5 in test [5] (scale: molecules of actin per molecule of the 30,000-D protein).
